# T1: Mcl-1, Q07820
# T1 chain: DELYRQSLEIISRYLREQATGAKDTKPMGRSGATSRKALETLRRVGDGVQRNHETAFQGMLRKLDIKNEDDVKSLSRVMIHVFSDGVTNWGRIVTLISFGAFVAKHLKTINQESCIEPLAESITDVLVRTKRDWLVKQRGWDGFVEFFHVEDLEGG
# T2: Bfl-1, Q16548
# T2 chain: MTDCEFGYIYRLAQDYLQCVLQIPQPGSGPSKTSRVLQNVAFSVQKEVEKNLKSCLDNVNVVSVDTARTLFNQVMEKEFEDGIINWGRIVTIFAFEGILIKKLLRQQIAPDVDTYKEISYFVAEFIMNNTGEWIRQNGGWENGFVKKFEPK
# Columns and labels:
# Test in all cases: peptide SPOT array, c-Myc-tagged receptor at 1 uM or 100 nM, anti-c-Myc-Cy3
# Mcl-1, Q07820 = molecular target: T1, Mcl-1, Q07820
# Bcl-xL, Q07817 = molecular target: Bcl-xL, Q07817
# Bfl-1, Q16548 = molecular target: T2, Bfl-1, Q16548
# Bcl-xL, Q07817, sequence (Q07817 1-209): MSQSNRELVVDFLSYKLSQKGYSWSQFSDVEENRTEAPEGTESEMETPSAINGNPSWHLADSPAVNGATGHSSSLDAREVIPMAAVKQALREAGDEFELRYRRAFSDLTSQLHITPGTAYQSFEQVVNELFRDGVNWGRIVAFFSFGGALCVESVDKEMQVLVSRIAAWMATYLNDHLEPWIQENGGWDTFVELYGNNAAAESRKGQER
Binder,"SPOT signal as a fraction of Bim BH3's signal on the same receptor and array (Mcl-1, Q07820)","SPOT signal as a fraction of Bim BH3's signal on the same receptor and array (Bcl-xL, Q07817)","SPOT signal as a fraction of Bim BH3's signal on the same receptor and array (Bfl-1, Q16548)"
LFWTPLLVVLDAGLGDTEAQQTTLHP [SGCA],0.04,0.06,0.05
HTALENCASLLCIRLDELQEALTSHC,0.03,0.05,0.03
QEQEQHVPFDIHTYGDQLVSRFPQLN [NCAPH2],0.04,0.06,0.05
HHSSQEMSSEYREYLDSFGKCPGGRN [PCYT2],0.04,0.05,0.03
QASREAGAAADRNVAQRLFENYQTQS [CCDC68],0.04,0.05,0.04
KLALEQRCRELRARGRRLEETLPRRI [KIF19],0.58,1.22,0.62
LMARPAVALHDQSIADGFKEAVRYVL [SOS2],0.45,0.17,0.22
SMRRNAMGVGLVFELDLFTTRHISHW [DNAH10],0.18,0.21,0.17
MRSQLGKATALAIMLDKLWWADQVSE [LRP1],0.18,0.12,0.09
FKAWGKFGGAFCRYLDEMKEIQERQR [PURB],1.07,1.19,1.19
LALLAQPSHLDRQVARSVFGHICSHL [MYBBP1A],0.63,0.68,0.38
RAKASSLSEELKHFADGLETDGTLQK [DSN1],0.05,0.07,0.04
HTALENCASLLCIRADELQEALTSHC,0.03,0.07,0.03
WVKSIRICTPMGKLLDSCHPLTRKVP [PROK2],0.56,1.23,0.53
ERLKGQLCDVLLIVGDQKFRAHKNVL [ZNF295],0.25,0.38,0.21
APEEDFFSIHIRIVLDWTEGLFNACG [CYBB],0.04,0.06,0.04

Binder,"SPOT signal as a fraction of Bim BH3's signal on the same receptor and array (Mcl-1, Q07820)","SPOT signal as a fraction of Bim BH3's signal on the same receptor and array (Bcl-xL, Q07817)","SPOT signal as a fraction of Bim BH3's signal on the same receptor and array (Bfl-1, Q16548)"
DSLLWKLAGLLRESLDVVLSGCSTLS [STK11IP],0.05,0.06,0.04
YFKLFRASGDMRTNLDNYLYEIQLSS [IGF2R],0.39,0.28,0.37
IQENVDISTVYQIFADEVLGSGQFGI [PRKD3],0.04,0.08,0.05
SFLSAHCASHDAWFGDSLTSLSQRLQ [TMEM214],0.05,0.07,0.06
SGLPGLSSVDINNFGDSINESEGIPL [MKI67],0.04,0.08,0.04
GVMTQEVGQLLQDMLDDVYQQYRSLT [HUWE1],0.02,0.03,0.01
ADVHGIWSRLFCDFGDEFEVLDTTGE [UBA6],0.04,0.07,0.04
APGEEDLCAAFNVICDNVGKDWRRLA [FADD],0.16,0.08,0.04
QCPIFRLGDIFRETGDNFSDVAIQGG [P2RX7],0.05,0.07,0.04
NGGLLEFHKSLQEILDKNDHWFDIDP [DZIP3],0.06,0.12,0.05
TGSLCEIATTDSFEGDGFLWVKSGSV [CRB1],0.04,0.06,0.03
ELDEDDLEAELDALGDELLADEDSSY [CHMP5],0.03,0.06,0.03
VDSIRPKCQEDRHLCDQFSAEIARRR [MCF2L],0.08,0.25,0.1
FGEYSGISENIILVGDDFWIPETSFI [ROS1],0.04,0.07,0.04
AEVMRQRGINMRYLLKVLELVLRSPA [KIAA0664],0.71,0.74,0.49
LALMMQLARELKTLLRDLGMAVVVTN [RAD51L3],0.1,0.11,0.07

# From publication PMC4072508, “Genome-Wide Prediction and Validation of Peptides That Bind Human Prosurvival Bcl-2 Proteins” (PLoS Computational Biology, 2014)
